# Experimental data as given in patent CN115057931A (GUANGZHOU YUHENG BIOTECHNOLOGY CO LTD, dated 2022).
# T1: mouse LAG-3 on Flp-In-CHO cells (mouse, UniProt Q61790 24-521)
# T1 construct: whole, on cells; also called 鼠LAG-3; 细胞表面小鼠LAG-3
# T1 sequence (looked up): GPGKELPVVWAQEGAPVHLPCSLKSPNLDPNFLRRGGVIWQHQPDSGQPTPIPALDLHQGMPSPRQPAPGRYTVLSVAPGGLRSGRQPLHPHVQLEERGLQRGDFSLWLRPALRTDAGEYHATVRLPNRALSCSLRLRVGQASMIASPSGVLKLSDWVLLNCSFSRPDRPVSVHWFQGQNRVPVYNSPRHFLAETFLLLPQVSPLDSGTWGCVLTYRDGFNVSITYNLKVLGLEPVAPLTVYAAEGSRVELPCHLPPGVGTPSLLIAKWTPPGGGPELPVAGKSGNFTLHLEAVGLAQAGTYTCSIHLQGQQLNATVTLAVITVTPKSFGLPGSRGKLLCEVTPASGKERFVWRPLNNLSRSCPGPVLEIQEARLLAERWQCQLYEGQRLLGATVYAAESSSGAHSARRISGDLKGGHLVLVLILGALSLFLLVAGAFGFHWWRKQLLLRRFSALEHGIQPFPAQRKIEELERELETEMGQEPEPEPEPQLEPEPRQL
# T2: human LAG-3, full length, on transfected cells (human, UniProt P18627 23-525)
# T2 sequence: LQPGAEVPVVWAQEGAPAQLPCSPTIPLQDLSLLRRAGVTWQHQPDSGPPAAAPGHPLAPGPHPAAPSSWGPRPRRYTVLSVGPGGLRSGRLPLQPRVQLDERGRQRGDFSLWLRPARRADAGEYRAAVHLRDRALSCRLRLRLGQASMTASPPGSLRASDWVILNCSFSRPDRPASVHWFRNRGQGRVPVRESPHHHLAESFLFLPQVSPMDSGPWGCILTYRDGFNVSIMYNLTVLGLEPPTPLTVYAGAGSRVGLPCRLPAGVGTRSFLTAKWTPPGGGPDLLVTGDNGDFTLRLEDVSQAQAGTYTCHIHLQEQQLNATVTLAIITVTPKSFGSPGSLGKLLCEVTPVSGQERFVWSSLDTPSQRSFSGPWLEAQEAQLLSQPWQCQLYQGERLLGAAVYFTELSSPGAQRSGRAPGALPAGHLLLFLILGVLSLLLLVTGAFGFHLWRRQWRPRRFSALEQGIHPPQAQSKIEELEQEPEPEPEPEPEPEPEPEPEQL
# B1: 1.53.3-uAb-IgG4k (antibody, V domains shown)
# VH: QVQLQQWGAGLLKPSETLSLTCGVYGGSFSGYYWSWIRQPPGMGLEWIGEINHRGNTNYNPSLKSRVTISEDTSKNQFSLRLSSVTAADTAVYFCTRGEDYSDYDYYGDFWGQGTLVTVSS
# VL: EIVLTQSPATLSLSQGERATLSCRASQSISSYLAWYQQKPGQAPRLLIYAASNRATGIPARFSGSGSGTDFTLTISSLEPEDFAIYYCQQRSNWPLTFGGGTKVEIK
# notes: Fully human antibody from OMT rats; the other pair 15/16 goes with CDRs 7-12 in CLM-00002
# B2: 3.40.19-uAb-IgG4L (antibody, V domains shown)
# VH: QLQLQESGPGLVKPSETLSLTCTVSGDSISSTSYYWGWIRQPPGKGLEWIGSFYYSGSTYYNPSLKSRVTISVDTSKNQFSLKLNSVTAADTAVYYCARMQLWSYDVDVWGQGTTVTVSS
# VL: QSALTQPASVSGSPGQSITISCTGTSSDVGGYDYVAWYQQHPGKVPKLMIYDVSERPSGVSNRFSGSKSGNTASLTISGLQAEDEADYYCSSYTSTTTLVVFGGGTKLSVL
# notes: Fully human antibody from OMT rats; also called 3.40.19-uAb-hIgG4L
# Experiments:
# [1] = target: T3, human CD4 (human, UniProt P01730 26-390, limits assumed); experiment: ELISA, plate coated with 1 μg/mL human CD4
# T3 construct: also called 人CD4蛋白
# [2] = target: T1, mouse LAG-3 on Flp-In-CHO cells; experiment: FACS on Flp-In-CHO cells expressing mouse LAG-3
# [3] = target: T2, human LAG-3, full length, on …; experiment: cell-based or functional assay
# [4] = target: T4, cynomolgus LAG-3 on 293F cells (cynomolgus monkey); experiment: FACS on 293F cells expressing cynomolgus LAG-3
# T4 construct: whole, on cells; also called 食蟹猴LAG-3; 细胞表面食蟹猴LAG-3
Binder,binding result [1],binding result [2],"EC50(nM), IL-2 luciferase reporter in Jurkat cells expressing human LAG-3 with Raji cells and SEE [3] [nM]",EC50 [4] [nM]
B1,no binding (tested: 1μg/mL),no binding,1.07,4.01
B2,no binding (tested: 1μg/mL),–,0.21,3.92
